Results: patent US20120207760A1 (THERACLONE SCIENCES, published 2012)

Assays:
[1] = target: T1, hemagglutinin (HA) of influenza A/Solomon Islands/3/06 H1N1 (Influenza A virus A/Solomon …); assay: ELISA, inactivated whole virions coated; transfection supernatant set 5
[2] = target: hemagglutinin (HA) of influenza A/Japan/305/57 H2N2 (Influenza A virus A/Japan/305/1957 …, UniProt P03451 16-562); assay: as above
[3] = target: T1, hemagglutinin (HA) of influenza …; assay: cell-based or functional assay

B1: TCN-549 (5092_P04) (antibody, V domains shown)
VH: QVQLVQSGAEVKKPGASVKVSCKASGYTFTGYYMHWVRQAPGQGLEWMGWINPNSGDTNYAQKFQGRVTMTRDTSITTAYMELSSLRSDDTAVYYCARDSPYSSSWSFFDYWGQGPLVTVSS
VL: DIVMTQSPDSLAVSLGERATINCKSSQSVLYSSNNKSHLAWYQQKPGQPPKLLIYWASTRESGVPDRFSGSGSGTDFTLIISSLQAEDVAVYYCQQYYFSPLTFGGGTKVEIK
B1 showed an OD450 [1] of 0.09 OD450 and an OD450 [2] of 0.08 OD450.

B2: TCN-552 (5249_I23) (antibody, V domains shown)
VH: QVQVVQSGAEVKKPGSSVRVSCQASGGTFMNYAIIWVRRAPGQGLEWMGGIIPVFPTPNYAQMFQGRVTISTDESRSTSFLELTNLRYEDTAVYYCARRIYHGGNSGFDFWGQGTLVTVSS
VL: EIVLTQSPATLSLSPGERATLSCRASQSVGNYLAWYQQKPGQAPRLLIYDSSNRAPGIPARFSGSGSGTDFTLTISSLAPEDFAVYYCQQRSKWPPMYSFGHGTKLEIK
B2 was tested, and the “% Neutralization” value [3] was 57%, the OD450 [1] was 3.61 OD450 and the OD450 [2] was 2.68 OD450.

B3: TCN-546 (5089_L08) (antibody, V domains shown)
VH: QVQLQQWGAGLLKPSETLSLTCGVYGGSLSDYYWSWIRQPPGKGLEWIGEINHSGGTNYNPSLKRRVTISVDTSKKQFSLKMNSVTAADTAVYYCARGTDPDTEVYCRAGNCAAFDFWGQGTLVTVSS
VL: EIVLTQSPGTLSLSPGERATLSCRASHFVIGRAVAWYQQKPGQAPRLLIYGASSRATGIPDRFSGSGSGTDFTLTISRLETEDFAVFYCQHYGSSPRYAFGQGTKLEIK
With B3 the “% Neutralization” value [3] was 0%, the OD450 [1] was 3.67 OD450 and the OD450 [2] was 0.07 OD450.

B4: TCN-557 (5081_A04) (antibody, V domains shown)
VH: QVQLVQSGAEVKKPGASVKVSCKASGHTFTGYYIHWVRQAPGQGLEWMGWINPDSGATSSAQNFQGRVTMTGDTSSSTAYMELSRLSFDDTAVYYCARVLFTSPFDFWGEGTLVTVSS
VL: QAVVTQEPSLAVSPGGTVTLTCGSSTGAVTRGHYPYWFQQKPGQAPRALIYDSAGNRHSWTPARFSGSLLGGKAALTLSGAQPEDEAEYYCLLSYSGVWVFGGGTKLTVL
Binder B4 has an OD450 [1] of 3.58 OD450 and an OD450 [2] of 3.59 OD450.

B5: TCN-556 (5089_K12) (antibody, V domains shown)
VH: QVQLVQSGAEVKKPGASVKVSCKASGYTFIGYDMHWVRQAPGQGLEWMGWINAKRGGTNYAQKFQGRVTMTRDTSISTAYMELNSLRSDDTAVYYCARGVGSRTTIFGVLNPEFDYWGQGTLVTVSS
VL: QSALTQPPSASGSPGQSVTISCTGSSSDVGGYDYVSWYQQHPGKAPKLLIYEVTKRPSGVPDRFSGSKSGNTASLTVSGLQAEDEADYYCSSYAGNYNHVFGPGTKVTVL
Binder B5 has an OD450 [1] of 3.64 OD450 and an OD450 [2] of 3.64 OD450.

B6: TCN-540 (5060_F05) (antibody, V domains shown)
VH: QVQLVQSGGGVVQPGRSLRLSCAASGFTFSSYAMHWVRQAPGKGLEWVAIISYDGNDQYYTDSVKGRFTISRDSSKVYLQMHRLRPEDTAVYYCAKEFETSGYFHGSFDYWGQGILVTVSS
VL: QSALTQPASVSGSPGQSITISCTGTSSDVGGYNYVSWYQQHPGKAPKLLIYEVTNWPSGVSNRFSGSKSGNTASLTISGLQAEDEADYYCSSYAGSSTWVFGGGTRVTVL
B6 was tested, and the “% Neutralization” value [3] was 100%, the OD450 [1] was 0.09 OD450 and the OD450 [2] was 3.61 OD450.

B7: TCN-553 (5261_C18) (antibody, V domains shown)
VH: QVQVVQSGTEVKKPGSSVKVSCQTSGGRFMSYAITWVRQAPGQGLEWMGGIVPVFGTANYAQKFQGRVTITTDDSTRTAYMELSSLRSEDTAVYYCGFRYGSGYGFDSWGQGTLVTVSS
VL: EIVLTQSPGTLSLSPGERATLSCRASQSVSSSYLAWYQKKPGQAPRLLIYGASTRATGIPDRFTGSGSGTDFTLSISRLEPEDFAVYYCQHFGTSVFTFGGGTKVEIK
In the case of B7, the “% Neutralization” value [3] is reported as 87%, the OD450 [1] is reported as 3.56 OD450 and the OD450 [2] is reported as 3.28 OD450.

B8: TCN-537 (3194_D21) (antibody, V domains shown)
VH: QVQLQQWGSGLLKPSETLSLTCAVYGGSFRDDYWTWIRQPPGKGLEWIGEINHSGRTNYNPSLKSRVTISVDTSLKQFSLKVISVTAADTAVYYCARGTSHVSRYFDWLPPTNWFDPWGQGTQVTVSS
VL: DIVLTQSPGTLSLSPGERATLSCRASQSVSSSYLAWYQQKPGQAPRLVMYGAATRATGIPDRFSGSGSGPDFTLTISRLEPEDFAMYYCQQYGNSPITFGQGTRLEIK
With B8 the “% Neutralization” value [3] was 89%, the OD450 [1] was 3.56 OD450 and the OD450 [2] was 3.48 OD450.

B9: TCN-545 (5082_I15) (antibody, V domains shown)
VH: QVQLQQWGAGLLKPSETLSLSCAVFGGSFSDYYWTWIRQPPGKGLEWIGEIKHSGRTNYNPSLESRVTISVDTSKNQFSLKLSSVTAADTAIYYCARGTDPDTEGYCRSGSCSAFDFWGQGTLVTVSS
VL: EIVLTQSPGTLSLSPGERATLSCRASHFVNYRSLAWYQQTPGQVPRLLIYGASTRATGIPDRFSGSGSGTDFTLTISRLEPEDFAVYFCQQYGGSPRYTFGQGTRLEIK
With B9 the “% Neutralization” value [3] was 98%, the OD450 [1] was 1.36 OD450 and the OD450 [2] was 0.1 OD450.

B10: TCN-548 (5092_P01) (antibody, V domains shown)
VH: QVQLQESGPGLVKPSETLSLTCTVSSGPMSDYYWSWIRQPPGKGLEWIGHVSVSHGGRTKSNPSVMSRVTISVETSKNQFSLKLTSVTAADTAVYYCARLNYYDRSGYHSPDGPSNNWFDPWGQGTLVTVSS
VL: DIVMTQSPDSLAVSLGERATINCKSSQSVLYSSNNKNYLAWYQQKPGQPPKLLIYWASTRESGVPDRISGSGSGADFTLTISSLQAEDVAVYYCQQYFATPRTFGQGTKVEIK
Binder B10 has an OD450 [1] of 0.13 OD450 and an OD450 [2] of 0.09 OD450.

B11: TCN-538 (3206_O17) (antibody, V domains shown)
VH: QITLKESGPTLVKPTQTLTLTCVFSGFSLSITGVRVGWIRQPPGKALEWLALISWDDEKHYSPSLQSRLTITKDTSKNQVVLTMTNLDPVDTATYYCARSTDRGHVLRYFGWMLPGDAFDVWGQGTMVTVSS
VL: DIVMTQSPDFLPVSLGERATINCKSSQRVLYSSNNKNYLAWYQLKPGQPPKLIIYWASTRESGVPDRFSGSGSGTEFTLTISSLQAEDVAVYYCQQYYSRPYTFGQGTKLEIK
In the case of B11, the “% Neutralization” value [3] is reported as 35%, the OD450 [1] is reported as 3.59 OD450 and the OD450 [2] is reported as 3.37 OD450.

B12: TCN-550 (5096_F06) (antibody, V domains shown)
VH: QVQLQESGPGLVKPSETLSLTCTVSGASINSHYWSWIRQPPGKGLEWIGYVYYSGSTTYNPSLKSRVTLSVDTSKNQFSLNLSSVTAADTAFYYCARHPYDVLTGSGDWFDPWGQGTLVTVSS
VL: SYVLTQAPSVSVAPGQTARITCGGNAIGSKKVHWYQHKAGQAPVLVVYDDTDRPSGIPERFSGSNSWSTATLTINRVEAGDEADYYCQVWDFTIDHVVFGGGTKLTVL
B12 gave an OD450 [1] of 0.13 OD450 and an OD450 [2] of 0.08 OD450.

B13: TCN-543 (5081_G23) (antibody, V domains shown)
VH: QVHLVQSGAEVRKPGDSVKVSCKTSGYTFSTYPVAWVRQVPGQGLEWMGWISTYNGNTNFAQNFQGRVTLTTDTTTNTAYMEVRSLKFDDTAVYYCARVEGSYRDFWNNQNRFDPWGQGTLVTVSS
VL: SYVLTQPPSVSVAPGQTARISCGGSNIGGKSVHWYQQKPGQAPVLVVYDDSGRPSGIPERFSGSNSGDTATLTISRVEAGDEADYFCQVWDNFGGVFGTGTKVTVL
With B13 the “% Neutralization” value [3] was 100%, the OD450 [1] was 3.63 OD450 and the OD450 [2] was 3.64 OD450.

B14: TCN-558 (5248_H10b) (antibody, V domains shown)
VH: QVQLVQSGSEVKKPGTSVKVSCTASGSVFTNYGISWVRQAPGQGLEWMGGIIPLFGAAKYAQKFQGRVTITADESTKTVYMELSRLTSKDTAIYFCAKAPRVYEYYFDQWGQGTPVTVSS
VL: EIVMTQFPATLSVSPGERVTLSCRASQSVSNNLAWYQQKPGQPPRLLIYDASTRATGVPAKFSGTGSGTEFTLSISSLQSEDFAVYYCQQYHNWPPSYSFGLGTKLEIK
B14 gave an OD450 [1] of 3.52 OD450 and an OD450 [2] of 3.31 OD450.

B15: TCN-542 (5079_A16) (antibody, V domains shown)
VH: QVQLQESGPGLVKPSQTLSLTCTVSGGSISSGNYYWNWVRQHPGKGLEWIGYIYYRGSTFYNPSLKSRVTISIDTSKNQFSLRLSSVTAADTAVYYCAKDTRSSLDNYQYGMDVWGQGTTVTVSS
VL: QTVVTQEPSLTVSPGGTVTLTCASSTGAVTSSYFPNWFQQKPGQAPRPLIYSTTIRHSWTPARFSGSLLGGKAALTLSGVQPEDEADYYCLLYSGGDPVAFGGGTKLTVL
For B15, the “% Neutralization” value [3] was 98%, the OD450 [1] was 3.6 OD450 and the OD450 [2] was 0.07 OD450.

B16: TCN-554 (5277_M05) (antibody, V domains shown)
VH: QVQLVQSGADLKKPGASVKVSCKASGYTFTDYYIHWVRQAPGQGLEWMGWINPESGDTKYAQKFQGRVTMTRDTSITTAYMELGRLRSDDTAVYYCARDVSTTWSWFAPWGQGTLVTVSS
VL: DIVMTQSPDSLAVSLGERATINCRSSQSIFHNSNNENYLAWYQQKPGQPPKLLIYWASTRESGVPDRFSGSGSGTDFTLTISSLQAEDVAVYFCQQYYNAPLTFGGGTKVEIK
B16 was tested, and the “% Neutralization” value [3] was 42%, the OD450 [1] was 0.18 OD450 and the OD450 [2] was 0.11 OD450.

B17: TCN-544 (5082_A19) (antibody, V domains shown)
VH: QVQLQESGPGLVKPSETLSLTCTVSRGSIGHYFWSWIRQPPGKGLEWIGYISYSGSTKYNPSLRSRVTISVDTSKNQFSLNLNSVTATDTALYYCAREDYDILTGAGPGMEVWGQGTTVTVSS
VL: QSMLTQPPSASGTPGQRVTISCSGSSSNIGSNTVNWFKHLPGTAPKLLIYRNDLRPSGVPDRFSGSKSGTSASLAISGLQSEDEADYYCATWDDSLNGFYVFGTGTKVTVL
For B17, the “% Neutralization” value [3] was 95%, the OD450 [1] was 0.07 OD450 and the OD450 [2] was 0.07 OD450.

B18: TCN-547 (5092_F11) (antibody, V domains shown)
VH: QVQLQESGPGLVKPSQTLSLTCTVSGDSISSVDHYWSWIRQHPVKGLEWIGFMYYSASTYYNPSLKSRVTISTDTSKNQFSLRLSSVTAADTAVYYCARGTCAGDCSLHYYYYGLDVWGQGRTVTVSS
VL: DIQMTQSPSSLSASVGDRVTITCRASQSISSYLNWYQHKPGKAPKVLMYAVSILQSGVPSRFSGSGSGADFTLTISSLQPEDFATYYCQQSYSSPLTFGGGTKVEIK
B18 gave an OD450 [1] of 0.09 OD450 and an OD450 [2] of 0.09 OD450.

B19: TCN-539 (5056_A08) (antibody, V domains shown)
VH: QVQLVESGGGVVQPGRSLRLSCAASEITFITYAMHWVRQAPGKGLEWVALISDDGSNKFYADSVKGRFTISRDNSKNTLYLQMNSLRAEDTAAYYCAREGVYFDSGTYRGYFDYWGQETLVTVSS
VL: EIVLTQSPATLSLSPGERATLSCRASQSVSSYLAWYQQKPGQAPRLLIYDASNRATGIPARFSGSGSGTDFTLTISSLEPEDFAVYYCQQRSHWPPITFGQGTRLEIK
For B19, the “% Neutralization” value [3] was 97%, the OD450 [1] was 0.07 OD450 and the OD450 [2] was 0.07 OD450.

B20: TCN-551 (5243_D01) (antibody, V domains shown)
VH: EVQLVQSGSEVKKPGESLKISCKGSGYSFSNYWIGWVRHMPGKGLEWMGIIYPGDSDTRYSPSFQGQVTMSADKSSSTVYLQWSSLKASDTAIYYCARRGGHSFGYGSGGDTHSEFDSWGQGTLVTVSS
VL: QSVLTQSPSVSAAPGQKVTISCSGSDSNIGDYFVCWYQHLPGKPPQLLIYENNKRPSGIPDRFSGSKSGTSATLGITGIQTGDEADYYCATWDGSLSAWVFGGGTKLTVL
With B20 the “% Neutralization” value [3] was 100% and the OD450 [1] was 3.65 OD450.
